Test results from PMC11420955.
Residue numbers refer to the chain shown, from its start. In names and notes the source's numbering stands. One block for each molecule: values may come before it.

Experiments:
McjB M108T = McjB M108T (UniProt Q9X2V8)
McjB = molecular target: T1, McjB (UniProt Q9X2V8)
T1 sequence: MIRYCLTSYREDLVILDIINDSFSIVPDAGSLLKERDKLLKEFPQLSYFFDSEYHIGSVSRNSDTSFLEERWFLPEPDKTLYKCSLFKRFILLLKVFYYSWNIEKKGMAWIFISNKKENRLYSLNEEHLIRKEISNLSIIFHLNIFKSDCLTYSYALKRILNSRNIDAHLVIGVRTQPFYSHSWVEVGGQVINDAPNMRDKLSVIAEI

McjC K337E = McjC K337E (UniProt Q9X2V9)
McjC S440Y = McjC S440Y (UniProt Q9X2V9)
McjC = molecular target: T2, McjC (UniProt Q9X2V9)
T2 sequence: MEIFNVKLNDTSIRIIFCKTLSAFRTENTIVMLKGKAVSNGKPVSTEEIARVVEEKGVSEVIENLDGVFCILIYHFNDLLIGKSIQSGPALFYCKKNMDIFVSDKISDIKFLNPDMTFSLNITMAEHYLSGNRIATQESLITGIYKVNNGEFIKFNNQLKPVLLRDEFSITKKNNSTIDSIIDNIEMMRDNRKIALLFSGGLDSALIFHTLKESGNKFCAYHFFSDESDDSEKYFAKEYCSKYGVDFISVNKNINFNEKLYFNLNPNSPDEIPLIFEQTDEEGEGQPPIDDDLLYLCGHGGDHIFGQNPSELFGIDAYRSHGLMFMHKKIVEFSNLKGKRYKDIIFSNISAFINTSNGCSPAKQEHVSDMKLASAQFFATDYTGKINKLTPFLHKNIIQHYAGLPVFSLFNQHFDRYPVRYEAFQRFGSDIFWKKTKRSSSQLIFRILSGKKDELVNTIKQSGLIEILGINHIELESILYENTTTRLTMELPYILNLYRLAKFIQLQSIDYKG

MccJ25 production yield relative to WT (HPLC peak area of E. coli culture extract; synthetic rescue pair TM) (McjB M108T): 5.4%
MccJ25 production yield relative to WT (HPLC peak area of E. coli culture extract) (McjB): 1%
Molecule: McjA T-2M (peptide)

MccJ25 production yield relative to WT (HPLC peak area of E. coli culture extract) (McjC K337E): 8.1%
MccJ25 production yield relative to WT (HPLC peak area of E. coli culture extract) (McjC S440Y): 2.4%
Molecule: Microcin J25 precursor peptide McjA

MccJ25 production yield relative to WT (HPLC peak area of E. coli culture extract) (McjC): 41%
Molecule: Split McjB S80/81 (B1 1-80 and B2 81-208 as separate proteins) (from UniProt Q9X2V8 1-80; Q9X2V8 81-208) (complex)

MccJ25 production yield relative to WT (HPLC peak area of E. coli culture extract; McjC-MBP in an otherwise native gene cluster) (McjB): 86%
B1: McjC with a C-terminal MBP fusion (enzyme)
chain: T2 sequence

MccJ25 production yield relative to WT (HPLC peak area of E. coli culture extract; McjB-MBP in an otherwise native gene cluster) (McjC): 61%
B2: McjB with a C-terminal MBP fusion (enzyme)
chain: T1 sequence

MccJ25 production yield relative to WT (HPLC peak area of E. coli culture extract) (McjC): 0.6%
B3: McjB F67R (enzyme)
chain: T1 sequence with F67R

MccJ25 production yield relative to WT (HPLC peak area of E. coli culture extract) (McjC): 4.4%
B4: McjB circular permutant CP80/81 (enzyme)
chain: LYKCSLFKRFILLLKVFYYSWNIEKKGMAWIFISNKKENRLYSLNEEHLIRKEISNLSIIFHLNIFKSDCLTYSYALKRILNSRNIDAHLVIGVRTQPFYSHSWVEVGGQVINDAPNMRDKLSVIAEIGGSSGGMIRYCLTSYREDLVILDIINDSFSIVPDAGSLLKERDKLLKEFPQLSYFFDSEYHIGSVSRNSDTSFLEERWFLPEPDKT

MccJ25 production yield relative to WT (HPLC peak area of E. coli culture extract) (McjC): 0.4%
B5: McjB circular permutant CP60/61 (enzyme)
chain: RNSDTSFLEERWFLPEPDKTLYKCSLFKRFILLLKVFYYSWNIEKKGMAWIFISNKKENRLYSLNEEHLIRKEISNLSIIFHLNIFKSDCLTYSYALKRILNSRNIDAHLVIGVRTQPFYSHSWVEVGGQVINDAPNMRDKLSVIAEIGGSSGGMIRYCLTSYREDLVILDIINDSFSIVPDAGSLLKERDKLLKEFPQLSYFFDSEYHIGSVS
